Target: recombinant human CD62L (L-selectin) full extracellular region, native 1 signal sequence construct (human)
Experiment: SPR

**Q.** How did the Kd turn out when “mucin from porcine stomach type II (PSM-II) (natural protein)” was run?
**A.** Its Kd is 55 µM.
